Laboratory results as given in US7888090B2, “Mutants of O6-alkylguanine-DNA alkyltransferase” (Ecole Polytechnique Federale de Lausanne, priority 2004, dated 2011).

Legend:
[1] = Periplasmic expression / stability under oxidizing conditions; parameters: species or system E. coli
Protocol: The activities towards AGT substrates are measured after purification without addition of reducing agents such as dithiothreitol or beta-mercaptoethanol. Alternatively, the activities of mutant AGT and wild type human are compared after their export into cellular compartments with oxidising redox potential (e.g. the periplasm of E. coli due to their fusion to appropriate signal sequences. Activity towards AGT substrates under reducing and oxidising conditions is compared by performing the reactions in the presence or absence of reducing agents such as dithiothreitol or beta-mercaptoethanol.
The mutant AGT gene of Example 1 is amplified and cloned as described in Example 1 with the oligonucleotides SEQ ID NO:3, SEQ ID NO:10 and SEQ ID NO:4, SEQ ID NO:9 causing the further mutation Cys62Ala in the gene upon their incorporation by PCR. Protein expression, purification and determination of yield is carried out as described in Example 1. The mutant gene is PCR amplified with the primers SEQ ID NO:11, SEQ ID NO:12 that contain SfiI restriction sites to subclone the gene in fusion to the g3 protein of filamentous phage in the vector pAK100 (Krebber et al., J Immunol Methods 201:35-55, 1997). […] The supernatant is directly subjected to quantification of protein yield via SDS-PAGE and activity assays as described in Example 1.
Stability under oxidizing conditions: The mutant gene is PCR amplified with the primers SEQ ID NO:11 and SEQ ID NO:28 to subclone the gene into pAK100, as described in Example 2. […] To compare the reactivity of […] (Juillerat et al., Chem Biol 10:313-317, 2003) and the mutant, samples are incubated with 1 µM BG-Bt for 50 min, quenched with SDS-Laemmli buffer and analyzed by western blotting using neutravidin peroxidase conjugate (Pierce) or a monoclonal mouse anti-FLAG IgG antibody (M2, Sigma) and a secondary anti-mouse-IgG::HRP conjugate, and Renaissance reagent plus (NEN). […] The anti-FLAG IgG antibody is used to estimate the total amount of soluble AGT protein, whereas neutravidin quantifies the reactive portion of it. […]

[2] = Competition of N^9-substituted and N^9-unsubstituted O^6-benzylguanine substrates; format: biochemical; settings: comparator not stated
Protocol: Such N^9-substituted O^6-alkylguanine substrates are the natural substrates of the wild type AGT. The ability of wild type AGT or mutant AGT to react with N^9-modified O^6-alkylguanine substrates is measured as the rate of its reaction with such substrates, e.g. with the low molecular weight N^9-cyclopentyl-O^6-benzylguanine in presence of biotinylated N^9-unsubstituted O^6-alkylguanine substrates in competition experiments. Subsequently, samples are subjected to Western blotting and detection with streptavidin derivates to obtain kinetic constants for these substrates. Alternatively, the reactivity towards such substrates is measured as the inhibition of the reaction of AGT with BG-Cy3. The reaction of AGT with BG-Cy3 is followed by an increase of Cy3 fluorescence intensity upon binding to AGT, after preincubation or in direct competition with the N^9-modified O^6-alkylguanine substrate.
Selected AGT mutants are subcloned into pGEX2T, expressed, purified and characterized as described in Example 1. Discrimination between N^9 substituted and N^9 unsubstituted O^6-benzylguanine substrates is evaluated by competition experiments for purified mutated GST-AGT in vitro with N^9-substituted and N′-unsubstituted O^6-benzylguanine. Aliquots of 0.2 μM GST-AGT are incubated with varying concentrations of N^9 substituted substrate (0, 0.5, up to 100 µM) and 0.5 µM biotinylated O^6-benzylguanine (BG-Bt, substance 3a of Juillerat et al., Chem Biol 10:313-317, 2003) in 50 mM HEPES pH 7.3 and 1 mM DTT at room temperature. After 45 min reactions are quenched by the addition of SDS-Laemmli buffer and heat denaturation. Samples are subjected to SDS-PAGE and Western blotting analysis (neutravidin-peroxidase conjugate (PIERCE), Renaissance reagent plus (NEN)). The intensity of the corresponding bands is quantified by a Kodak Image Station 440.

[3] = Activity assay with biotinylated O^6-benzylguanine (BG-Bt), Western blotting; format: biochemical; settings: statement in words
Protocol: Activity towards O^6-benzylguanine substrates is measured as described by Juillerat et al., Chem Biol 10:313-317, 2003.
Activity assay: Purified mutated GST-AGT is incubated in vitro with a biotinylated O^6-benzylguanine (BG-Bt, substance 3a of Juillerat et al., Chem Biol 10:313-317, 2003). In a total reaction volume of 80 […]I, 0.2 µM GST-AGT are incubated with 1 µM substrate in 50 mM HEPES pH 7.2 and 1 mM DTT at room temperature. At several points of time an aliquot is quenched with 1 mM O^6-benzylguanine (Sigma) in SDS-Laemmli buffer and subjected to Western blotting analysis (neutravidin-peroxidase conjugate (PIERCE), Renaissance reagent plus (NEN)). The intensity of the corresponding bands is quantified by a Kodak Image Station 440.

[4] = Expression yield of soluble GST-AGT fusion protein; parameters: species or system E. coli; settings: comparator not stated
Protocol: Expression yield is measured in E. coli or in any other of the standard production cells for genetically modified proteins, e.g. yeast, or preferably insect cells, CHO cells or HeLa cells. For quantifying expression yield, AGT fusion proteins may be chosen such that the fusion partner allows easy purification and quantification. For example, expression yield in E. coli is determined by measuring and comparing the yield of soluble and insoluble GST-wild type AGT fusion protein and GST-mutant AGT fusion protein from parallel E. coli expression cultures. Samples of the soluble fractions and insoluble fractions (i.e. the inclusion bodies) after cell lysis are subjected to SDS-PAGE, and the band staining intensities of the corresponding AGT fusion proteins are compared. Soluble protein is quantified after purification of the fusion protein from cell extracts by affinity chromatography (e.g. for GST-AGT fusion proteins by glutathione sepharose) by subjecting the purified fractions to a protein concentration assay (Bradford, Anal Biochem 72:248-54, 1976). The expression yield of similar proteins in the soluble fraction (difference in point mutations) can be used as a measure for protein stability in the unpurified as well as the purified state (Ohage et al., J Mol Biol 291:1119-1128, 1999; Wirtz et al., Protein Sci 8: 2245-50, 1999). Therefore, this is taken as a measure of folding stability and aggregation tendency.
Protein expression from this vector is carried out in E. coli strain BL21. An exponentially growing culture is induced with 0.5 mM IPTG, and the expression is carried out for 3.5 h at 24° C.
Purification: The harvested cells are resuspended in a buffer containing 50 mM phosphate, 0.5 M NaCl, 1 mM DTT, supplemented with 1 mM PMSF and 2 μg/ml aprotinin, and disrupted by lysozyme and sonification. The cell debris are separated by centrifugation at 40000×g. The extract is applied to pre-equilibrated glutathione sepharose (Amersham) which is then washed with 20 bed volumes (50 mM phosphate, 0.5 M NaCl, 1 mM DTT). The mutated GST-AGT fusion protein is eluted with 10 mM reduced glutathione in 50 mM Tris·HCl pH 7.9. The purified protein is dialyzed against 50 mM HEPES pH 7.2; 1 mM DTT; 30% glycerol and then stored at −80° C.
Determination of protein yield: Purity and relative amounts of the GST-AGT fusion proteins are compared by running samples on SDS-PAGE. UV spectra of the pure fractions are recorded using a Perkin Elmer Lambda 10. For protein samples containing no significant amount of DNA, the extinction at 280 nm as a measure of protein content is compared to that of wild type hAGT or PGEG-hAGT that were purified under the same conditions.

B1: Cys62Ala, Gln115Ser, Gln116His, Lys125Ala, Ala127Thr, Arg128Ala, Cys150Asn, Ser151Ile, Ser152Asn, Asn157Gly, Ser159Glu, truncated after Gly182: particularly preferred hAGT mutant with the listed … (protein, UniProt P16455 1-207, looked up, variant C62A Q115S Q116H K125A A127T R128A C150N S151I S152N N157G S159E del183-207)
Methylated-DNA--protein-cystei …: MDKDCEMKRTTLDSPLGKLELSGCEQGLHEIKLLGKGTSAADAVEVPAPAAVLGGPEPLMQATAWLNAYFHQPEAIEEFPVPALHHPVFQQESFTRQVLWKLLKVVKFGEVISYSHLAALAGNPAATAAVGGAMRGNPVPILIPCHRVVNINGAVGGYEGGLAVKEWLLAHEGHRLGKPGLG
sensitivity to oxidation [1]: reduced sensitivity to oxidation | reduced reactivity towards O^6-alkyl-N^9-deoxyribosylguanine or N^9-cyclopentyl-O^6-benzylguanine [2]: retain reactivity | activity towards O^6-benzylguanine substrates [3]: increased reactivity | expression yield in E. coli [4]: increased expression yield
